The values that follow come from patent publication US20250115680A1 (PROFOUNDBIO US, published 2025).

The target in assay [1] is T1, cynomolgus PTK-7 recombinant protein (cynomolgus monkey, UniProt A0A2K5VNI5 39-712).
T1 construct: also called cynomolgus monkey PTK7 protein; cyano PTK7
T1 sequence: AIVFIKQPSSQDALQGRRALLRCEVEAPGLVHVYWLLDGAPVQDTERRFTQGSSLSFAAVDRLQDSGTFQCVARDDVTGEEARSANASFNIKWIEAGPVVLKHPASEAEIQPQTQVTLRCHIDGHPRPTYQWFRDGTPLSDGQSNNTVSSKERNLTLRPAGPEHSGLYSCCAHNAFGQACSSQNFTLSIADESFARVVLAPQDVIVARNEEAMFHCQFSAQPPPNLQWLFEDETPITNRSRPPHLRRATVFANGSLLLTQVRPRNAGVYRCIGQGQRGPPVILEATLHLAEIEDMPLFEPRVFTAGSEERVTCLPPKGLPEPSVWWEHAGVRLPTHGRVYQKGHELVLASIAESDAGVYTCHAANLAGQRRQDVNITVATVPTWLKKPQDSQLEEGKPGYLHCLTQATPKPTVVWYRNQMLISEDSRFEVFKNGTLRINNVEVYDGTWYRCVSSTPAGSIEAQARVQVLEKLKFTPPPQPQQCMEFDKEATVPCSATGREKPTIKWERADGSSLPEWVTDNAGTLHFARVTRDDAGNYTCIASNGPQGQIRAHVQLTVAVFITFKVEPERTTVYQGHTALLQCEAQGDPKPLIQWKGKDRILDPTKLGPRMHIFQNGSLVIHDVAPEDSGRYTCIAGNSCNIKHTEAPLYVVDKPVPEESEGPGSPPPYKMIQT
The assay is described as follows: ELISA, plate-coated cynomolgus PTK7 protein, anti-human Fc-HRP detection. As to the method: Binding specificity property was tested by ELISA according to a standard protocol. Specifically, 96-well micro-plates were coated with 2 μg/mL human, cynomolgus, mouse, and rat PTK-7 recombinant protein in PBS 100 μL per well, incubated overnight at 4° C. Plates were washed twice by TBS+0.5% Tween20. 200 μL of blocking buffer (2% BSA in PBS) was added to each well and incubated at 37° C. for 2 hours. Plates were washed using the buffer mentioned above. Serially diluted antibodies were added to the ELISA plate with 100 μL per well and incubated for 1 hour at room temperature. Then plates were washed for 3 times. After washing, HRP conjugated anti-human Fc antibody solution (abcam, ab98624, diluted with blocking buffer) was added to the plate with 100 μl per well. The plates were incubated at room temperature for 1 hour and then washed for 3 times. Then TMB solution was added to plates with 100 μl per well, placed at room temperature for 5-15 mins, then the stop solution (2M H₂SO₄) was added with 50 μl per well. Finally, the result was measured by absorbance at A₄₅₀ and A₆₃₀.
(ELISA stands for enzyme-linked immunosorbent assay.)

For assay [2], the target named is T2, human PTK7 on the surface of PTK7-expressing tumor cell lines (human, UniProt Q13308 31-1070).
T2 construct: whole, on cells
T2 sequence (looked up): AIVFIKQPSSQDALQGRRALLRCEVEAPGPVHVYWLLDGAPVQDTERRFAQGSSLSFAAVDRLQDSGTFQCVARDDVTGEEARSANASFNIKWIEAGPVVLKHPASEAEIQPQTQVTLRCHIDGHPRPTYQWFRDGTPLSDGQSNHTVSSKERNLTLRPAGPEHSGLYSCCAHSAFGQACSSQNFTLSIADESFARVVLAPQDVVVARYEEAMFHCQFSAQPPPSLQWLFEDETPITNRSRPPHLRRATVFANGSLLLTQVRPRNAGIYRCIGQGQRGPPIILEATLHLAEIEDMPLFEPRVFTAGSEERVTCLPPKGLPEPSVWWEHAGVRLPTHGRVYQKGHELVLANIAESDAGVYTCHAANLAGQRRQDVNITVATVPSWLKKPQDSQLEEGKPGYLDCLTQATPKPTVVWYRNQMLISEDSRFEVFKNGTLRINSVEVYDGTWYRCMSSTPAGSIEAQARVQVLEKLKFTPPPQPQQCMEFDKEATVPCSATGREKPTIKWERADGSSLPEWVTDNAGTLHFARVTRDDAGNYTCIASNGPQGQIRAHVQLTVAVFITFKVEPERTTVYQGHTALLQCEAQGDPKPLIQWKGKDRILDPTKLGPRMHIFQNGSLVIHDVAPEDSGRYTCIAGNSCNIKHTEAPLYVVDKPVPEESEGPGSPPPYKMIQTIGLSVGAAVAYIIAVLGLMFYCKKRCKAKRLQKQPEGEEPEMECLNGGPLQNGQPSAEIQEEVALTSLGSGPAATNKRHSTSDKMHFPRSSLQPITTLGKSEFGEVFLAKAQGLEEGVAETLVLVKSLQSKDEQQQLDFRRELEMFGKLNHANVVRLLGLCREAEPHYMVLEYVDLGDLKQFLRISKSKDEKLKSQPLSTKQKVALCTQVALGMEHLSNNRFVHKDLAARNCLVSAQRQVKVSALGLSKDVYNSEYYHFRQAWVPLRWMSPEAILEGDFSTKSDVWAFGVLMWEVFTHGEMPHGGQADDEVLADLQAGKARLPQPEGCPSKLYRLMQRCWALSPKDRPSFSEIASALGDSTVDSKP
Put plainly: flow cytometry on MDA-MB-453 cells, PE anti-human Fc detection, MFI(PE). Background: In flow cytometry, cells or beads pass a laser one at a time.

B1: humanized antibody 13C4 (antibody, V domains shown)
VH: QVQLVESGGGLVKPGGSLRLSCAASGFAFSTYDMFWIRQAPGKGLEWVSTISSGGGYTYYPGSVKGRFTISRDNAKNSLYLQMNSLRAEDTAVYYCVRPLLRDSYFYFDVWGQGTMVTVSS
VL: EIVMTQSPATLSVSPGERATLSCRASSSVSSSYLHWYQQKPGQAPRLLIFRTSNLASGIPARFSGSGSGTEYTLTISSLQSEDAAVYYCQQYSGYPLTFGQGTKLEIK
notes: Only variable regions are tied to 13C4; It was detected with anti-human Fc
In general, EC50 refers to the concentration needed to bring the measured effect to its halfway point. B1: the EC50 in assay [1] amounted to 1.14 nM; in assay [2], 0.623 nM.

B2: humanized antibody 2C5 (antibody, V domains shown)
VH: QVQLVQSGAEVKKPGASVKVSCKASGYTFTDYYINWVRQAPGQGLEWMGDINPYSGGPVYNQKFMARVTMTVDKSINTAYMELSRLRSDDTAVYYCARGDYYGSNYNYWGQGTLVTVSS
VL: EIVLTQSPATLSVSPGERATLSCRASQNIGTSIHWYQQKPGQAPRLLIKFASESISGIPARFSGSGSGTEFTLTISSLQSEDIAVYYCQQSNNWPYTFGQGTKLEIK
notes: Only variable regions are tied to 2C5; It was detected with anti-human Fc, so it has a human Fc
For the molecule B2, the EC50 came out at 1.67 nM in assay [1] and 0.488 nM in assay [2].

B3: humanized antibody 2C8 (antibody, V domains shown)
VH: QIQLVQSGAEVKKPGASVKVSCKASGYTFTTYGMSWVRQAPGQGLEWMGWINTHSGVPTYVDEFKGRVTMTLDTSTSTAYMELSSLRSEDTAVYYCARSPFDYGSRGAWFVYWGQGTTVTVSS
VL: DVVMTQSPDSLAVSLGERATINCRSSQSIVHNSGDTYLEWYQQKPGQPPKLLIYKVSNRFPGVPDRFSGSGSGTDFTLTISSLQAEDLAVYYCFQGSHVPWTFGGGTKVEIK
notes: Only variable regions are tied to 2C8 by name; It was detected with anti-human Fc
Regarding B3, the EC50 in assay [1] is 2.61 nM; in assay [2], 0.339 nM.
